In one assay the test system is human NSCs. Nature of the assay: Retinal differentiation of human NSCs in vitro (opsin immunocytochemistry). Conditions: for differentiation of NSCs into opsin-positive cells: factor for 3 days before, or for 5 days during, spontaneous differentiation in serum-free condition, 50 ng/ml; for differentiation of NSCs into retinal cells (opsin staining): FIG. 7(II), serum-free differentiation, 20 ng/ml IGF-1, 100 ng/ml TGF-b3, 10 ng/ml CNTF. The assay is classed as cell-based. How it is done:
Two kinds of differentiation studies were performed: treatment of human NSCs with factors (i) before and (ii) during spontaneous differentiation under a basal media condition. In the first example, NSCs were differentiated under a serum-free differentiation condition in the presence of TGF-b3 (R&D, 50 ng/ml (1 ng/ml to 1 ug/ml)) and VEGF (R&D, 50 ng/ml (1 ng/ml to 1 ug/ml)) for 5 days in Lab-Teck II chamber slides (Nalge Nunc). The second example elucidated whether pretreatment of NSCs is sufficient to produce retinal lineages in these cells. The NSCs were treated with these factors for 3 days, and then differentiated for 5 days under the serum-free differentiation condition in the absence of these factors in the Lab-Teck II chamber slides. As a control, human NSCs were differentiated for 5 days in a no-factor treatment under a serum-free differentiation condition. After differentiation, cells were examined by double-immunofluorescent-cytochemistry (Kim et al., 2002, Proc. Natl. Acad. Sci. U S A 99: 4020-5) with antibodies in a combination of goat anti-GFAP (1:100, Research Diagnostics) and mouse anti-B-tubulin (1:700, Sigma) or mouse anti-opsin (1:200, Chemicon). […] No opsin-positive cells were detected in the spontaneous differentiation without TGF-b3 (FIG. 7b), the treated cells were positive for bIII-tubulin and GFAP (FIG. 7a).

A further assay deals with MeSCs. The assay can be described thus: Retinal cell differentiation of MeSCs with growth factor treatment. The conditions noted are these: without BrdU pre-treatment. It is filed as cell-based.
In a further assay the test system is rat retina. Nature of the assay: Transplantation of pretreated NSCs into the rat vitreous cavity (opsin immunocytochemistry, human opsin ISHH). Conditions: FIG. 8(II); 8 days after transplantation to rat eye; NSCs exposed for four days to 20 ng/ml IGF-1, 100 ng/ml TGF-b3 or 10 ng/ml CNTF. It is filed as in vivo.

Take VEGF: the “differentiation of NSCs into opsin-positive cells” value in the assay on human NSCs is recorded as “no opsin-positive cells were detectable”. Moreover, the “retinal cell-differentiation of MeSCs” value in the assay on MeSCs was “not sufficient to confer retinal cell-differentiation”.

For the molecule IGF-1: insulin-like growth factor-1, the “differentiation of NSCs into retinal cells (opsin staining)” value (“differentiation … (opsin staining)” below) in the assay on human NSCs is on record as “can differentiate into retinal cells”. Further, the “differentiation of transplanted NSCs to opsin-expressing cells in vivo” value (“differentiation of transplanted NSCs” below) in the assay with rat retina is “differentiated to opsin-expressing cells in vivo”.

B1: TGF-b3: human recombinant transforming growth factor beta 3 (R&D) (protein, UniProt P10600 301-412, looked up)
Transforming growth factor …: ALDTNYCFRNLEENCCVRPLYIDFRQDLGWKWVHEPKGYYANFCSGPCPYLRSADTTHSTVLGLYNTLNPEASASPCCVPQDLEPLTILYYVGRTPKVEQLSNMVVKSCKCS
As to B1, in the assay on human NSCs, the “differentiation … (opsin staining)” value is given as “can differentiate into retinal cells” and the “differentiation of NSCs into opsin-positive cells” value is listed as “differentiated into opsin-positive cells”. For the same molecule, the “retinal cell-differentiation of MeSCs” value in the assay on MeSCs is listed as “not sufficient to confer retinal cell-differentiation”. Further, the “differentiation of transplanted NSCs” value in the assay on rat retina is “differentiated to opsin-expressing cells in vivo”.

B2: CNTF: ciliary neurotrophic factor (protein, UniProt P26441 1-200, looked up)
Ciliary neurotrophic factor: MAFTEHSPLTPHRRDLCSRSIWLARKIRSDLTALTESYVKHQGLNKNINLDSADGMPVASTDQWSELTEAERLQENLQAYRTFHVLLARLLEDQQVHFTPTEGDFHQAIHTLLLQVAAFAYQIEELMILLEYKIPRNEADGMPINVGDGGLFEKKLWGLKVLQELSQWTVRSIHDLRFISSHQTGIPARGSHYIANNKKM
B2: the “differentiation … (opsin staining)” value with human NSCs was “can differentiate into retinal cells”. The “differentiation of transplanted NSCs” value in the assay with rat retina is listed as “differentiated to opsin-expressing cells in vivo”.

The values above are taken from US7618621B2, “Mammalian multipotent neural stem cells and compositions, methods of preparation and methods of administration thereof” (The Board of Trustees of the University of Illinois, priority 2002, dated 2009).
